Laboratory results taken from paper PMC7150784.

What was measured:
[1] = target: amphibian alpha-1 nAChR orthosteric site mimotope (Xenopus laevis); experiment: BLI; Octet RED 96; […] (1 µg/mL) […]; running buffer 1X DPBS with 0.1% BSA and 0.05% Tween-20; […], in triplicate
[2] = target: lizard alpha-1 nAChR orthosteric site mimotope; experiment: BLI

Work on “alpha-cobratoxin (from UniProt P01391 1-71) (natural protein)” yielded an AUC (potency) above that on the lizard mimotope [1] of 50%, an AUC (potency) above that on the rodent mimotope [1] of 98% and an AUC (potency) above that on the rodent mimotope [2] of 30%.
